Assay [1] concerns the target Cleft Lip and Palate Transmembrane protein 1 (CLPTM1), human, native, in cells (human) (UniProt O96005). Put plainly: flow cytometry on permeabilised O-876 cells expressing native CLPTM1.
The target is the same in assay [2]. Put plainly: flow cytometry on permeabilised O-876 cells expressing native CLPTM1, 10x dilution series. (Flow cytometry measures light scatter and fluorescence of single cells or particles in a stream.)
Assay [3] has as its target T1, Cleft Lip and Palate Transmembrane protein 1 (CLPTM1), human, native, in cells (human, UniProt O96005 2-669).
T1 construct: Native CLPTM1 as expressed by cells; also called CLPTM1 receptor
T1 sequence: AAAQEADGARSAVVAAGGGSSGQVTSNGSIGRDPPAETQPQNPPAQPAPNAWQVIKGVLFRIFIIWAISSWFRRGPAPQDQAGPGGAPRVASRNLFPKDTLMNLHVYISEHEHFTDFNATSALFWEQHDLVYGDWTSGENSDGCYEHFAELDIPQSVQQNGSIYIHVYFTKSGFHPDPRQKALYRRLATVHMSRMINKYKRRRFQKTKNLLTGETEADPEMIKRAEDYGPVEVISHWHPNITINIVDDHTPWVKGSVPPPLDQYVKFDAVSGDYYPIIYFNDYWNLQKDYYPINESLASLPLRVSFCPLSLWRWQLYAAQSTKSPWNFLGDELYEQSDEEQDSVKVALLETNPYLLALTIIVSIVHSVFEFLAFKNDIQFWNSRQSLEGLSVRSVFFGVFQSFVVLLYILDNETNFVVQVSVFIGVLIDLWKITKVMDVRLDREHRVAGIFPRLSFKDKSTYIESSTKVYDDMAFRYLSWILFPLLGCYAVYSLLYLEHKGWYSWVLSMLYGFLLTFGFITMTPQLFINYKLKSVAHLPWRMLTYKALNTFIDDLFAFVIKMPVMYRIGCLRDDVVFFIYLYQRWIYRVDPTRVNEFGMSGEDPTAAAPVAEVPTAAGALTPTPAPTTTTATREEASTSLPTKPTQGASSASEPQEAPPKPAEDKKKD
Put plainly: flow cytometry on permeabilised O-876 cells expressing native CLPTM1. On the procedure:
(§1) Affinity of antibodies was determined by finding the half-maximal binding on the native target in a flow cytometry assay. Since the native target is found inside most cells and rarely on the cell surface, the assay was performed using plasma membrane-permeabilized cells, an intra-cellular staining protocol. Using the native target is more applicable when evaluating and comparing various antibodies as it is the true antigen to be bound in a therapeutic setting in vivo. 0-876 cells were permeabilized with BD-fix and permeabilization buffer (554722 BD-Biosciences). Antibody at various concentrations was incubated with cells for 30 minutes at +4 C, then washed twice with wash buffer (BD-Biosciences 554723). Secondary antibodies a-mouse IgG-PE (Molecular Probes) was used for mouse monoclonal antibodies according to manufacturer's instructions and a-rabbit-IgG-PE (Molecular Probes) for rabbit monoclonal antibody (Abcam ERP8800). Three washes followed and fluorescence intensity in cells was quantified by FACS Cantoll in PBS with cells in 2% FCS buffer.
(§2) The assay was performed on 0-876 cancer cell line.

The target in assay [4] is T1, Cleft Lip and Palate Transmembrane …. Put plainly: flow cytometry on permeabilised O-876 cells expressing native CLPTM1; Kd defined by half maximal binding. On the procedure:
as §1, §2

Assay [5] addresses T2, ….
T2 sequence (peptide, biotinylated; C-terminal glycine not from CLPTM1): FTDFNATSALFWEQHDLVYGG
The experiment in a line: ELISA: biotinylated CLPTM1 peptide on streptavidin plate, GDF15 at 100 ng/ml, detected with goat anti-GDF15 and anti-goat-HRP. A general note: In an ELISA, binding on a coated surface is turned into a signal by an enzyme label.

Assay [6] deals with T3, ….
T3 sequence (peptide, biotinylated; C-terminal glycine not from CLPTM1): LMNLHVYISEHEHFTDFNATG
The assay is described as above. This is another data set of the same source.

Assay [7] concerns the target T4, ….
T4 sequence (peptide, biotinylated; C-terminal glycine not from CLPTM1): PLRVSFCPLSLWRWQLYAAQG
Described as above. The source holds these as a separate data set.

Assay [8] deals with T5, ….
T5 sequence (peptide, biotinylated; C-terminal glycine not from CLPTM1): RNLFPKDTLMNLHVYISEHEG
Described as above. This is another data set of the same source.

The target in assay [9] is T6, ….
T6 sequence (peptide, biotinylated; C-terminal glycine not from CLPTM1): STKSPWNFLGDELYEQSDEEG
Described as above. This is another data set of the same source.

For a further assay, the target named is T7, AAAQEADGARSAVVAAGGGSG (biotinylated; C-terminal glycine not from CLPTM1).
T7 construct: also called G1
T7 peptide: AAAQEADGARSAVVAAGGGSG
The description is as above. As for the experimental part: (§3) Biotinylated synthetic peptide fragments from CLPTM1 (JPT peptides, Germany) were immobilized in a streptavidin 96 well plate (#15500 Pierce) at 1 μM in PBS overnight at +4° C. Plate was washed 4 times in 300 μl PBS with 0.05% Tween-20 (wash buffer). The plate was blocked with PBS 1% BSA and 0.05% Tween-20 (blocking buffer) for 1.5 hours at room temperature then washed 4 times in wash buffer. GDF15 ligand (Abcam) was added in blocking buffer at 100 ng/ml and incubated at room temperature for 2 hours. The plate was then washed 8 times in 300 μl wash buffer with 2×NaCl. A GDF15 antibody as added at 1 μg/ml (R&D systems goat polyclonal) and incubated in block buffer for 1 hour at room temperature followed by washing with 4×300 μl wash buffer. HAF017 anti-goat-HRP antibody was added and incubated for 1 hour in blocking buffer followed by a wash. TMB substrate was added and stopped after 15 minutes with H2SO4. OD 450-620 was measured in an ELISA reader.
(§4) Polypeptides having sequences set forth in SEQ ID NOs:10-33 were assessed for binding to GDF15 (corresponding to the polypeptides indicated from left to right in FIG. 2 and shown in Table 1). These proteins were synthesised with a C-terminal glycine residue that is not present in the corresponding sequences from CLPTM1.

In the next assay the target is T8, MIKRAEDYGPVEVISHWHPNG (biotinylated; C-terminal glycine not from CLPTM1).
T8 construct: also called G12
T8 peptide: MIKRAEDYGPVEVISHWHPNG
Described as above. On the procedure: as §3, §4

A further assay has as its target T9, NDYWNLQKDYYPINESLASLG (biotinylated; C-terminal glycine not from CLPTM1).
T9 construct: also called G15
T9 peptide: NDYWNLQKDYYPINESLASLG
The description is as above. As for the experimental part:
as §3, §4

A further assay addresses T10, YEQSDEEQDSVKVALLETNPG (biotinylated; C-terminal glycine not from CLPTM1).
T10 construct: also called G18
T10 peptide: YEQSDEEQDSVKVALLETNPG
The description is as above. As for the experimental part:
as §3, §4

For another assay, the target named is T11, LWRWQLYAAQSTKSPWNFLGG (biotinylated; C-terminal glycine not from CLPTM1).
T11 construct: also called G19
T11 peptide: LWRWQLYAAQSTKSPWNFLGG
The description is as above. As for the experimental part: as §3, §4

In a further assay the target is T12, WQVIKGVLFRIFIIWAISSWG (biotinylated; C-terminal glycine not from CLPTM1).
T12 construct: also called G22
T12 peptide: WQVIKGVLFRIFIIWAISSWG
The assay is described as above. As for the experimental part:
as §3, §4

The next assay concerns the target T13, SGQVTSNGSIGRDPPAETQPG (biotinylated; C-terminal glycine not from CLPTM1).
T13 construct: also called G2
T13 peptide: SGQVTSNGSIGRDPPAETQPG
The description is as above. On the procedure:
as §3, §4

The target in the next assay is T14, QNPPAQPAPNAWQVIKGVLFG (biotinylated; C-terminal glycine not from CLPTM1).
T14 construct: also called G3
T14 peptide: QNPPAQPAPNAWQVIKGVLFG
Described as above. On the procedure:
as §3, §4

A further assay deals with T15, RIFIIWAISSWFRRGPAPQDG (biotinylated; C-terminal glycine not from CLPTM1).
T15 construct: also called G4
T15 peptide: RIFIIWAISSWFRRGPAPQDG
The description is as above. On the procedure:
as §3, §4

For a further assay, the target named is T16, QAGPGGAPRVASRNLFPKDTG (biotinylated; C-terminal glycine not from CLPTM1).
T16 construct: also called G5
T16 peptide: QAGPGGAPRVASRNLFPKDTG
Described as above. On the procedure:
as §3, §4

Another assay has as its target T17, SALFWEQHDLVYGDWTSGENG (biotinylated; C-terminal glycine not from CLPTM1).
T17 construct: also called G7
T17 peptide: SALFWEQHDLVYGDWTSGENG
Described as above. On the procedure: as §3, §4

The target of another assay is T18, SDGCYEHFAELDIPQSVQQNG (biotinylated; C-terminal glycine not from CLPTM1).
T18 construct: also called G8
T18 peptide: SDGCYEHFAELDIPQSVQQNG
The description is as above. As for the experimental part: as §3, §4

The target of the next assay is T19, RRRFQKTKNLLTGETEADPEG (biotinylated; C-terminal glycine not from CLPTM1).
T19 construct: also called G11
T19 peptide: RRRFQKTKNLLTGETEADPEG
Described as above. On the procedure:
as §3, §4

Assay [10] has as its target T20, CLPTM1 peptide G9 (residues 162-181 with C-terminal glycine) (human, biotinylated (position not given)).
T20 construct: Biotinylated synthetic peptide on a streptavidin plate; The C-terminal glycine is not in CLPTM1
T20 peptide: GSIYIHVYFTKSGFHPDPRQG
The description is as above. On the procedure: as §3, §4

Assay [11] addresses T21, CLPTM1 peptide G10 (residues 182-201 with C-terminal glycine) (human, biotinylated (position not given)).
T21 construct: Biotinylated synthetic peptide on a streptavidin plate; The C-terminal glycine is not in CLPTM1
T21 peptide: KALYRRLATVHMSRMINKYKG
The description is as above. As for the experimental part:
as §3, §4

Assay [12] has as its target T22, CLPTM1 peptide G14 (residues 262-281 with C-terminal glycine) (human, biotinylated (position not given)).
T22 construct: Biotinylated synthetic peptide on a streptavidin plate; The C-terminal glycine is not in CLPTM1
T22 peptide: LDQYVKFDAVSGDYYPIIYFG
The description is as above. On the procedure:
as §3, §4

In assay [13] the target is T23, CLPTM1 peptide G20 (residues 292-311 with C-terminal glycine) (human, biotinylated (position not given)).
T23 construct: Biotinylated synthetic peptide on a streptavidin plate; The C-terminal glycine is not in CLPTM1
T23 peptide: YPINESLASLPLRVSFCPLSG
The description is as above. On the procedure:
as §3, §4

The target of assay [14] is T24, CLPTM1 peptide G21 (residues 273-292 with C-terminal glycine) (human, biotinylated (position not given)).
T24 construct: Biotinylated synthetic peptide on a streptavidin plate; The C-terminal glycine is not in CLPTM1
T24 peptide: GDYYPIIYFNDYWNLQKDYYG
The description is as above. As for the experimental part: as §3, §4

In assay [1], “AbCam anti-CLPTM1 rabbit monoclonal antibody EPR8800 (RabMab)” gave a percent of maximal binding at 1 µg/mL above 50%. The same molecule yielded a percent of maximum binding at 0.1 µg/ml in assay [2] above 50%.

As for “Santa Cruz mouse anti-human CLPTM1 monoclonal antibody (G-7) (sc-374619)”, in assay [2], the percent of maximum binding at 1 µg/ml was below 50%.

B1: Mouse monoclonal anti-CLPTM1 antibody 7G12 (antibody, V domains shown)
VH: QVQLQQSGTELVRPGTSVKVSCKASGYAFTNYLIEWVKQRPGQGLEWIGVINPGSGGTRYNEKFKGKATLTADKSSTTAHMQLSSLTSDDSAVYCARWGGNYSGYAMDYWGQGTSVTVSS
VL: QIVLTQSPVIMSASPGEKVTITCSASSSVSYMHWFQQKPGTSPKLWIYSTSNLASGVPARFSGSGSGTSYSLTISRMEAEDAATYYCQQRSSYPPTFGAGTKL
notes: Mouse IgG1 heavy chain, kappa light chain; also called mAb 7G12; 7G12hyb
For the molecule B1, the EC50 (in general, the midpoint of the concentration-response curve) in assay [3] is below 1 µg/mL. In assay [4], the Kd (in general, the concentration at which binding is half-saturated) is below 1 nM.

B2: Growth and Differentiation Factor 15 (GDF15) (ligand, UniProt Q99988 197-308, looked up)
chain: ARNGDHCPLGPGRCCRLHTVRASLEDLGWADWVLSPREVQVTMCIGACPSQFRAANMHAQIKTSLHRLKPDTVPAPCCVPASYNPMVLIQKTDTGVSLQTYDDLLAKDCHCI
notes: Bought protein (Abcam); also called MIC-1; GDF15 ligand (Abcam)
In the case of B2, the OD ELISA 450nm - 620nm came out at 0.061 OD in assay [5]; 0.058 OD in assay [6]; 0.063 OD in assay [7]; 0.055 OD in assay [8]; 0.053 OD in [9]; 0.022 OD with AAAQEADGARSAVVAAGGGSG. Also, the “OD ELISA 450nm - 620nm” value is 0.028 OD with MIKRAEDYGPVEVISHWHPNG; 0.038 OD with NDYWNLQKDYYPINESLASLG; 0.022 OD with YEQSDEEQDSVKVALLETNPG; 0.033 OD with LWRWQLYAAQSTKSPWNFLGG; 0.023 OD in the assay with WQVIKGVLFRIFIIWAISSWG; 0.009 OD with SGQVTSNGSIGRDPPAETQPG. The “OD ELISA 450nm - 620nm” value with QNPPAQPAPNAWQVIKGVLFG turned out to be 0.042 OD; with RIFIIWAISSWFRRGPAPQDG, 0.026 OD; with QAGPGGAPRVASRNLFPKDTG it was 0.034 OD; with SALFWEQHDLVYGDWTSGENG it was 0.034 OD; with SDGCYEHFAELDIPQSVQQNG, 0.024 OD; in the assay with RRRFQKTKNLLTGETEADPEG it was 0.021 OD. Moreover, the “OD ELISA 450nm - 620nm” value in assay [10] turned out to be 0.149 OD; in assay [11] it was 0.197 OD; in assay [12], 0.14 OD; in [13], 0.22 OD; in assay [14], 0.507 OD.

Values taken from US20190256592A1 (GENAGON THERAPEUTICS, published 2019).
